Here are results for three molecules from paper PMC4258549 (Journal of immunology (Baltimore, Md. : 1950), 2014).

The term Kd denotes the equilibrium constant for the complex coming apart. Low readings indicate a tighter complex, high ones a looser complex. In general, IC50 refers to the midpoint of a concentration-inhibition curve.

The target of test [1] is T1, biotinylated C4b (human, biotin through Maleimide-PEG2-Biotin (residue not stated)). Put plainly: AlphaScreen or HTRF.
Test [2] has as its target T1, biotinylated C4b. Description: SPR. For orientation: SPR reads the build-up and loss of mass on a sensor chip optically.

B1: Eap12 (Eap fragment of domains 1 and 2) (domain or fragment)
chain: GHSNIQIPYTITVNGTSQNILSSLTFNKNQNISYKDIENKVKSVLYFNRGISDIDLRLSKQAEYTVHFKNGTKRVIDLKSGIYTADLINTSDIKAISVNVDTKKQPKDKAKANVQVPYTITVNGTSQNILSNLTFNKNQNISYKDLEGKVKSVLESNRGITDVDLRLSKQAKYTVNFKNGTKKVIDLKSGIYTANLINSSDIKSININVDTKKHIENKAKR
Take B1: the “fold weaker binding than Eap” value with biotinylated C4b [1] is roughly 100 fold.

B2: Eap34 (Eap fragment of domains 3 and 4) (domain or fragment)
chain: NYQVPYSINLNGTSTNILSNLSFSNKPWTNYKNLTSQIKSVLKHDRGISEQDLKYAKKAYYTVYFKNGGKRILQLNSKNYTANLVHAKDVKRIEITVKTGTKAKADRYVPYTIAVNGTSTPILSKLKISNKQLISYKYLNDKVKSVLKSERGISDLDLKFAKQAKYTVYFKNGKKQVVNLKSDIFTPNLFSAKDIKKIDIDVKQYTKSKKK
With B2, the Kd with biotinylated C4b [1] stood at 525 ± 65 nM. Also, the IC50 in the test with biotinylated C4b [2] is roughly 870 nM.

B3: Eap23 (Eap fragment of domains 2 and 3) (domain or fragment)
chain: ANVQVPYTITVNGTSQNILSNLTFNKNQNISYKDLEGKVKSVLESNRGITDVDLRLSKQAKYTVNFKNGTKKVIDLKSGIYTANLINSSDIKSININVDTKKHIENKAKRNYQVPYSINLNGTSTNILSNLSFSNKPWTNYKNLTSQIKSVLKHDRGISEQDLKYAKKAYYTVYFKNGGKRILQLNSKNYTANLVHAKDVKRIEITVKTGTKAKADRYV
In turn, B3 registered a dissociation constant Kd with biotinylated C4b [1] of 293 ± 38 nM.
